Data taken from the supplement of paper PMC9112550, “Optimization of the antimicrobial peptide Bac7 by deep mutational scanning” (BMC Biology, 2022).

Tested on: Escherichia coli TOP10
Test: shrunken log2 fold change of peptide-encoding DNA abundance (4.5 h post-induction vs induction); higher = less antimicrobial activity (less host growth inhibition)
Details: time post-induction: 4.5 h; library: site-saturation at positions 5, 18, 19, 20
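Also: peptides expressed intracellularly from a pBAD plasmid library in pooled LB shake-flask culture, induced with 0.3% L-arabinose, DNA abundance read by NGS, three biological replicates, DESeq2 with apeglm shrinkage.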

RRIRNRPPRLPRPRPRPLVRPRP
shrunken log2 fold change: -0.372

RRIRNRPPRLPRPRPRPLWAPRP
shrunken log2 fold change: -0.0559

RRIRNRPPRLPRPRPRPLWLPRP
shrunken log2 fold change: -0.181

RRIRNRPPRLPRPRPRPLYCPRP
shrunken log2 fold change: -0.793

RRIRNRPPRLPRPRPRPMAEPRP
shrunken log2 fold change: 0.0284

RRIRNRPPRLPRPRPRPMAPPRP
shrunken log2 fold change: -0.0631

RRIRNRPPRLPRPRPRPMCAPRP
shrunken log2 fold change: -0.253

RRIRNRPPRLPRPRPRPMCGPRP
shrunken log2 fold change: -0.301

RRIRNRPPRLPRPRPRPMCKPRP
shrunken log2 fold change: -0.175

RRIRNRPPRLPRPRPRPMCMPRP
shrunken log2 fold change: -0.106

RRIRNRPPRLPRPRPRPMDQPRP
shrunken log2 fold change: -0.01

RRIRNRPPRLPRPRPRPMEGPRP
shrunken log2 fold change: -0.00992

RRIRNRPPRLPRPRPRPMFHPRP
shrunken log2 fold change: -0.678

RRIRNRPPRLPRPRPRPMFKPRP
shrunken log2 fold change: -0.386

RRIRNRPPRLPRPRPRPMFMPRP
shrunken log2 fold change: -0.424

RRIRNRPPRLPRPRPRPMFNPRP
shrunken log2 fold change: -0.868

RRIRNRPPRLPRPRPRPMFWPRP
shrunken log2 fold change: 0.0282

RRIRNRPPRLPRPRPRPMGTPRP
shrunken log2 fold change: -0.0967

RRIRNRPPRLPRPRPRPMLDPRP
shrunken log2 fold change: -0.000365

RRIRNRPPRLPRPRPRPMLKPRP
shrunken log2 fold change: -0.0393

RRIRNRPPRLPRPRPRPMMCPRP
shrunken log2 fold change: -0.0344

RRIRNRPPRLPRPRPRPMNAPRP
shrunken log2 fold change: -0.281

RRIRNRPPRLPRPRPRPMNFPRP
shrunken log2 fold change: -0.0203

RRIRNRPPRLPRPRPRPMNMPRP
shrunken log2 fold change: -0.356

RRIRNRPPRLPRPRPRPMNSPRP
shrunken log2 fold change: -0.148

RRIRNRPPRLPRPRPRPMNTPRP
shrunken log2 fold change: -0.421

RRIRNRPPRLPRPRPRPMNVPRP
shrunken log2 fold change: -0.00101

RRIRNRPPRLPRPRPRPMSLPRP
shrunken log2 fold change: -0.0381

RRIRNRPPRLPRPRPRPMWFPRP
shrunken log2 fold change: 0.0647

RRIRNRPPRLPRPRPRPMYKPRP
shrunken log2 fold change: 0.0573

RRIRNRPPRLPRPRPRPNDDPRP
shrunken log2 fold change: 0.0813

RRIRNRPPRLPRPRPRPNDRPRP
shrunken log2 fold change: -0.218

RRIRNRPPRLPRPRPRPNECPRP
shrunken log2 fold change: -0.124

RRIRNRPPRLPRPRPRPNFPPRP
shrunken log2 fold change: -0.0305

RRIRNRPPRLPRPRPRPNGRPRP
shrunken log2 fold change: -0.00776

RRIRNRPPRLPRPRPRPNHAPRP
shrunken log2 fold change: -0.0192

RRIRNRPPRLPRPRPRPNIKPRP
shrunken log2 fold change: -0.641

RRIRNRPPRLPRPRPRPNLDPRP
shrunken log2 fold change: -0.136

RRIRNRPPRLPRPRPRPNLFPRP
shrunken log2 fold change: -0.225

RRIRNRPPRLPRPRPRPNLPPRP
shrunken log2 fold change: -0.0407

RRIRNRPPRLPRPRPRPNLTPRP
shrunken log2 fold change: -0.335

RRIRNRPPRLPRPRPRPNMEPRP
shrunken log2 fold change: -0.0369

RRIRNRPPRLPRPRPRPNMIPRP
shrunken log2 fold change: -0.697

RRIRNRPPRLPRPRPRPNMLPRP
shrunken log2 fold change: -0.772

RRIRNRPPRLPRPRPRPNNTPRP
shrunken log2 fold change: -0.798

RRIRNRPPRLPRPRPRPNNYPRP
shrunken log2 fold change: -1.01

RRIRNRPPRLPRPRPRPNPYPRP
shrunken log2 fold change: -0.151

RRIRNRPPRLPRPRPRPNQSPRP
shrunken log2 fold change: -0.157

RRIRNRPPRLPRPRPRPNRWPRP
shrunken log2 fold change: 0.105

RRIRNRPPRLPRPRPRPNSAPRP
shrunken log2 fold change: 0.026

RRIRNRPPRLPRPRPRPNSGPRP
shrunken log2 fold change: -0.0638

RRIRNRPPRLPRPRPRPNSKPRP
shrunken log2 fold change: -0.331

RRIRNRPPRLPRPRPRPNTFPRP
shrunken log2 fold change: -0.332

RRIRNRPPRLPRPRPRPNTNPRP
shrunken log2 fold change: -0.59

RRIRNRPPRLPRPRPRPNVNPRP
shrunken log2 fold change: -0.795

RRIRNRPPRLPRPRPRPNWYPRP
shrunken log2 fold change: -0.647

RRIRNRPPRLPRPRPRPPCHPRP
shrunken log2 fold change: -0.386

RRIRNRPPRLPRPRPRPPCWPRP
shrunken log2 fold change: 0.231

RRIRNRPPRLPRPRPRPPFLPRP
shrunken log2 fold change: -0.0418

RRIRNRPPRLPRPRPRPPGPPRP
shrunken log2 fold change: 0.419

RRIRNRPPRLPRPRPRPPGVPRP
shrunken log2 fold change: 0.653

RRIRNRPPRLPRPRPRPPHQPRP
shrunken log2 fold change: 0.0134

RRIRNRPPRLPRPRPRPPKNPRP
shrunken log2 fold change: 0.196

RRIRNRPPRLPRPRPRPPLCPRP
shrunken log2 fold change: 0.167

RRIRNRPPRLPRPRPRPPLHPRP
shrunken log2 fold change: 0.0562

RRIRNRPPRLPRPRPRPPMPPRP
shrunken log2 fold change: 0.0312

RRIRNRPPRLPRPRPRPPNAPRP
shrunken log2 fold change: 0.313

RRIRNRPPRLPRPRPRPPQGPRP
shrunken log2 fold change: 0.192

RRIRNRPPRLPRPRPRPPQPPRP
shrunken log2 fold change: 0.621

RRIRNRPPRLPRPRPRPPRHPRP
shrunken log2 fold change: 0.271

RRIRNRPPRLPRPRPRPPSAPRP
shrunken log2 fold change: 0.726

RRIRNRPPRLPRPRPRPPSDPRP
shrunken log2 fold change: -0.118

RRIRNRPPRLPRPRPRPPTGPRP
shrunken log2 fold change: 0.154

RRIRNRPPRLPRPRPRPPVHPRP
shrunken log2 fold change: -0.148

RRIRNRPPRLPRPRPRPPYAPRP
shrunken log2 fold change: 0.161

RRIRNRPPRLPRPRPRPPYPPRP
shrunken log2 fold change: -0.0162

RRIRNRPPRLPRPRPRPQAHPRP
shrunken log2 fold change: -0.163

RRIRNRPPRLPRPRPRPQCSPRP
shrunken log2 fold change: -0.148

RRIRNRPPRLPRPRPRPQDSPRP
shrunken log2 fold change: -0.238

RRIRNRPPRLPRPRPRPQFEPRP
shrunken log2 fold change: -0.013

RRIRNRPPRLPRPRPRPQFRPRP
shrunken log2 fold change: 0.00019

RRIRNRPPRLPRPRPRPQGKPRP
shrunken log2 fold change: 0.0697

RRIRNRPPRLPRPRPRPQKTPRP
shrunken log2 fold change: -0.0033

RRIRNRPPRLPRPRPRPQKWPRP
shrunken log2 fold change: -0.0202

RRIRNRPPRLPRPRPRPQMIPRP
shrunken log2 fold change: -0.0608

RRIRNRPPRLPRPRPRPQMSPRP
shrunken log2 fold change: -0.0396

RRIRNRPPRLPRPRPRPQPSPRP
shrunken log2 fold change: 0.186

RRIRNRPPRLPRPRPRPQQCPRP
shrunken log2 fold change: -0.0851

RRIRNRPPRLPRPRPRPQSEPRP
shrunken log2 fold change: -0.0564

RRIRNRPPRLPRPRPRPQSTPRP
shrunken log2 fold change: -0.548

RRIRNRPPRLPRPRPRPQVAPRP
shrunken log2 fold change: 0.14

RRIRNRPPRLPRPRPRPQVQPRP
shrunken log2 fold change: -0.524

RRIRNRPPRLPRPRPRPQVTPRP
shrunken log2 fold change: -0.134

RRIRNRPPRLPRPRPRPQWMPRP
shrunken log2 fold change: -0.0995

RRIRNRPPRLPRPRPRPQWQPRP
shrunken log2 fold change: -0.0605

RRIRNRPPRLPRPRPRPQYAPRP
shrunken log2 fold change: -0.0234

RRIRNRPPRLPRPRPRPRCDPRP
shrunken log2 fold change: -0.203

RRIRNRPPRLPRPRPRPRCWPRP
shrunken log2 fold change: 0.108

RRIRNRPPRLPRPRPRPRDYPRP
shrunken log2 fold change: -0.0159

RRIRNRPPRLPRPRPRPREEPRP
shrunken log2 fold change: -0.0547

RRIRNRPPRLPRPRPRPREGPRP
shrunken log2 fold change: 0.187

RRIRNRPPRLPRPRPRPREMPRP
shrunken log2 fold change: 0.0274

RRIRNRPPRLPRPRPRPREYPRP
shrunken log2 fold change: 0.0336

RRIRNRPPRLPRPRPRPRHWPRP
shrunken log2 fold change: 0.133

RRIRNRPPRLPRPRPRPRIDPRP
shrunken log2 fold change: -0.0916

RRIRNRPPRLPRPRPRPRKKPRP
shrunken log2 fold change: 0.163

RRIRNRPPRLPRPRPRPRLEPRP
shrunken log2 fold change: 0.317

RRIRNRPPRLPRPRPRPRLGPRP
shrunken log2 fold change: 0.187

RRIRNRPPRLPRPRPRPRLTPRP
shrunken log2 fold change: 0.252

RRIRNRPPRLPRPRPRPRMAPRP
shrunken log2 fold change: 0.424

RRIRNRPPRLPRPRPRPRMLPRP
shrunken log2 fold change: 0.132

RRIRNRPPRLPRPRPRPRMMPRP
shrunken log2 fold change: 0.0809

RRIRNRPPRLPRPRPRPRNAPRP
shrunken log2 fold change: 0.0122

RRIRNRPPRLPRPRPRPRNEPRP
shrunken log2 fold change: 0.121

RRIRNRPPRLPRPRPRPRNVPRP
shrunken log2 fold change: -0.3

RRIRNRPPRLPRPRPRPRQQPRP
shrunken log2 fold change: 0.365

RRIRNRPPRLPRPRPRPRTHPRP
shrunken log2 fold change: -0.184

RRIRNRPPRLPRPRPRPRVVPRP
shrunken log2 fold change: 0.078

RRIRNRPPRLPRPRPRPRWHPRP
shrunken log2 fold change: -0.114

RRIRNRPPRLPRPRPRPRYHPRP
shrunken log2 fold change: -0.438

RRIRNRPPRLPRPRPRPSAIPRP
shrunken log2 fold change: -0.354

RRIRNRPPRLPRPRPRPSDFPRP
shrunken log2 fold change: -0.00477

RRIRNRPPRLPRPRPRPSECPRP
shrunken log2 fold change: -0.272

RRIRNRPPRLPRPRPRPSEEPRP
shrunken log2 fold change: 0.0717

RRIRNRPPRLPRPRPRPSHNPRP
shrunken log2 fold change: -0.643

RRIRNRPPRLPRPRPRPSIRPRP
shrunken log2 fold change: -0.0225

RRIRNRPPRLPRPRPRPSKQPRP
shrunken log2 fold change: 0.00527

RRIRNRPPRLPRPRPRPSKTPRP
shrunken log2 fold change: -0.454

RRIRNRPPRLPRPRPRPSLFPRP
shrunken log2 fold change: -0.453

RRIRNRPPRLPRPRPRPSLMPRP
shrunken log2 fold change: 0.0538

RRIRNRPPRLPRPRPRPSMDPRP
shrunken log2 fold change: 0.00334

RRIRNRPPRLPRPRPRPSQHPRP
shrunken log2 fold change: -0.0437

RRIRNRPPRLPRPRPRPSQTPRP
shrunken log2 fold change: -0.00249

RRIRNRPPRLPRPRPRPSSFPRP
shrunken log2 fold change: -0.127

RRIRNRPPRLPRPRPRPSVFPRP
shrunken log2 fold change: -0.342

RRIRNRPPRLPRPRPRPSWIPRP
shrunken log2 fold change: -0.425

RRIRNRPPRLPRPRPRPSYGPRP
shrunken log2 fold change: -0.156

RRIRNRPPRLPRPRPRPTAFPRP
shrunken log2 fold change: 0.00576

RRIRNRPPRLPRPRPRPTAPPRP
shrunken log2 fold change: 0.517

RRIRNRPPRLPRPRPRPTCDPRP
shrunken log2 fold change: 0.0801

RRIRNRPPRLPRPRPRPTCMPRP
shrunken log2 fold change: 0.0558

RRIRNRPPRLPRPRPRPTDGPRP
shrunken log2 fold change: -0.113

RRIRNRPPRLPRPRPRPTFSPRP
shrunken log2 fold change: -0.269

RRIRNRPPRLPRPRPRPTFWPRP
shrunken log2 fold change: 0.323

RRIRNRPPRLPRPRPRPTGKPRP
shrunken log2 fold change: -0.0851

RRIRNRPPRLPRPRPRPTIEPRP
shrunken log2 fold change: 0.0325

RRIRNRPPRLPRPRPRPTKDPRP
shrunken log2 fold change: -0.197

RRIRNRPPRLPRPRPRPTLDPRP
shrunken log2 fold change: 0.221

RRIRNRPPRLPRPRPRPTLFPRP
shrunken log2 fold change: 0.0912

RRIRNRPPRLPRPRPRPTLIPRP
shrunken log2 fold change: -0.461
